Source: article doi:10.64898/2025.12.08.693039

Test system: LexA (Escherichia coli)
Assay: EMSA
Settings: 0.5 nM DNA or nucleosome, 10 mM Tris-HCl pH 8.0, 130 mM NaCl, 10% glycerol, 0.0075% Tween-20, room temperature, 20 min; 5% native acrylamide gel in 0.3x TBE

Substance: YNN1-LexO naked DNA
- Kd: < 5 nM
